According to publication PMC6522505:

Target: secCl (CG7589), Cys-loop ligand-gated ion channel subunit (Drosophila melanogaster)

shift in reversal potential in low chloride buffer, Xenopus oocytes co-expressing secCl and CG6927: 53 mV
Substance: CG6927, Cys-loop ligand-gated ion channel subunit (natural protein)
